T1: SMCR8 of the STREP-STREP-FLAG-ARF1-SMCR8 fusion (UniProt Q8TEV9 1-937)
T1 construct: SMCR8; In the structure its N-terminus is joined to the C terminus of ARF1 E17-K181, which carries the N-terminal STREP-STREP-FLAG tag, on one chain; also called Smith-Magenis chromosome regions 8
T1 sequence: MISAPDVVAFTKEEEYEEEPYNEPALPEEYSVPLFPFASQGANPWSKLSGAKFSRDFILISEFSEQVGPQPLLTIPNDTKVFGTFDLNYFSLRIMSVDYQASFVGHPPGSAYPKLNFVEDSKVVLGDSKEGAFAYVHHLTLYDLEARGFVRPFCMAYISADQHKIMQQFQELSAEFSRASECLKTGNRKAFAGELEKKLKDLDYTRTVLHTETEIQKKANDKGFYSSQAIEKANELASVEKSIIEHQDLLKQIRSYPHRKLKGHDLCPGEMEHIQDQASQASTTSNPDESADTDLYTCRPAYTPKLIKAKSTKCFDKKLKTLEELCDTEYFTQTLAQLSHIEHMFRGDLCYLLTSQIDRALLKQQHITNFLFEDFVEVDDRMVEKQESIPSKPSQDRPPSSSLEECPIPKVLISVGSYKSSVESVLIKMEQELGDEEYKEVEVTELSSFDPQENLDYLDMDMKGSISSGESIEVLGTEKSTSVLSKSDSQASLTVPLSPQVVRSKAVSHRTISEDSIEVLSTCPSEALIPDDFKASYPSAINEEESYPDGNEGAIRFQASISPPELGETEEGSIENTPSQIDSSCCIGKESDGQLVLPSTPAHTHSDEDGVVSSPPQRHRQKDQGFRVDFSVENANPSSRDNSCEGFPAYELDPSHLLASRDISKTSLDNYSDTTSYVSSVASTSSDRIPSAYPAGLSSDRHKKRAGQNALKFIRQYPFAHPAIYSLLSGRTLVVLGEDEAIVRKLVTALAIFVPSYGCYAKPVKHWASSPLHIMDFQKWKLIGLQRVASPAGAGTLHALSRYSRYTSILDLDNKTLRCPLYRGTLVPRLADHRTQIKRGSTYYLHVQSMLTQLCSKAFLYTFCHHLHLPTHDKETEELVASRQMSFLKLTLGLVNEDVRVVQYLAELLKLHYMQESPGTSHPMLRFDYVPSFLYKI

B1: C9orf72 (subunit of the C9orf72:ARF1-SMCR8:WDR41 complex) (natural protein)
chain: MSTLCPPPSPAVAKTEIALSGKSPLLAATFAYWDNILGPRVRHIWAPKTEQVLLSDGEITFLANHTLNGEILRNAESGAIDVKFFVLSEKGVIIVSLIFDGNWNGDRSTYGLSIILPQTELSFYLPLHRVCVDRLTHIIRKGRIWMHKERQENVQKIILEGTERMEDQGQSIIPMLTGEVIPVMELLSSMKSHSVPEEIDIADTVLNDDDIGDSCHEGFLLNAISSHLQTCGCSVVVGSSAEKVNKIVRTLCLFLTPAERKCSRLCEAESSFKYESGLFVQGLLKDSTGSFVLPFRQVMYAPYPTTHIDVDVNTVKQMPPCHEHIYNQRRYMRSELTAFWRATSEEDMAQDTIIYTDESFTPDLNIFQDVLHRDTLVKAFLDQVFQLKPGLSLRSTFLAQFLLVLHRKALTLIKYIEDDTQKGKKPFKSLRNLKIDLDLTAEGDLNIIMALAEKIKPGLHSFIFGRPFYTSVQERDVLMTF
notes: C9orf72; not shown: GST, N-terminal, cleaved
B2: ARF1^Q71L (residues E17-K181), GTP-locked mutant (domain or fragment)
chain: not shown
notes: ARF1, residues E17-K181 (N-terminal myristoylated amphipathic helix removed); source: E. coli BL21 DE3 star, purified (Ni-NTA, Superdex 75)
B3: WDR41 (subunit of the C9orf72:ARF1-SMCR8:WDR41 complex) (natural protein)
chain: MLRWLIGGGREPQGLAEKSPLQTIGEEQTQNPYTELLVLKAHHDIVRFLVQLDDYRFASAGDDGIVVVWNAQTGEKLLELNGHTQKITAIITFPSLESCEEKNQLILTASADRTVIVWDGDTTRQVQRISCFQSTVKCLTVLQRLDVWLSGGNDLCVWNRKLDLLCKTSHLSDTGISALVEIPKNCVVAAVGKELIIFRLVAPTEGSLEWDILEVKRLLDHQDNILSLINVNDLSFVTGSHVGELIIWDALDWTMQAYERNFWDPSPQLDTQQEIKLCQKSNDISIHHFTCDEENVFAAVGRGLYVYSLQMKRVIACQKTAHDSNVLHVARLPNRQLISCSEDGSVRIWELREKQQLAAEPVPTGFFNMWGFGRVSKQASQPVKKQQENATSCSLELIGDLIGHSSSVEMFLYFEDHGLVTCSADHLIILWKNGERESGLRSLRLFQKLEENGDLYLAV
notes: WDR41, cloned without a tag; also called WD repeat-containing protein 41
B4: ARF1 (residues E17-K181) of the STREP-STREP-FLAG-ARF1-SMCR8 fusion (domain or fragment)
chain: not shown
notes: ARF1, residues E17-K181; In the structure this ARF1 is joined by its C terminus to the N-terminus of SMCR8 on one chain (STREP-STREP-FLAG-ARF1-SMCR8, inserted by KpnI sites); also called ARF1-GDP-BeF3^-

Legend:
Settings in all cases: both partners purified
[1] = target: T1, SMCR8 of the …; assay: cryo-EM structure; chimeric C9orf72:ARF1-SMCR8:WDR41 complex, GDP-bound, incubated with BeF3^- overnight; 20 mM HEPES pH 7.4, 200 mM NaCl, 2 mM MgCl2, 0.5 mM TCEP; 3.9 Å reconstruction
[2] = target: T2, C9orf72:SMCR8:WDR41 complex (wild type) (UniProt Q96LT7 1-481; Q8TEV9 1-937; Q9HAD4 1-459); assay: SEC; 15 μM C9orf72:SMCR8:WDR41 incubated with 15-fold ARF1^Q71L in 500 μl overnight, injected into Superose 6 Increase 10/300
T2 construct: C9orf72; SMCR8 (Smith-Magenis chromosome regions 8); WDR41 (WD repeat-containing protein 41), cloned without a tag; The methods describe the purification for the fusion complex; also called C9orf72 complex; GAP complex; not shown: GST, N-terminal, cleaved; copies: + +

[3] = target: B1; assay: cryo-EM structure; chimeric C9orf72:ARF1-SMCR8:WDR41 complex, GDP-bound, incubated with BeF3^- overnight; 20 mM HEPES pH 7.4, 200 mM NaCl, 2 mM MgCl2, 0.5 mM TCEP; 3.9 Å reconstruction

Row | Binder | binding result [1] | binding result [2] | binding result [3]
1 | B1 | binds | – | –
2 | B2 | – | binds | –
3 | B3 | binds | – | –
4 | B4 | binds | – | binds

— article PMC8213707, “Structural basis for the ARF GAP activity and specificity of the C9orf72 complex” (Nature Communications, 2021)
